# Positions count from the first letter of the chain named.
# T1: 6×His.mVEGF-B10-108 (murine, UniProt P49766 31-129)
# T1 construct: not shown: additional 16 N-terminal amino acids with 6xHis tag and Genenase I cleavage site
# T1 sequence: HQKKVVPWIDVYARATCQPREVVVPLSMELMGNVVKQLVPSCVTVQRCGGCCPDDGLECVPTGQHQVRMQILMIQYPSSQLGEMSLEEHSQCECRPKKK
# T2: human VEGF-B10-108 (human, UniProt P49765 31-129)
# T2 construct: also called VB108
# T2 sequence: T1 sequence with K3R, P7S, A13T, S27T, M28V, N33T, V35A, Q75R
# B1: 2H10 CDR-grafted human germline Fab (CDR-Fab) (Fab, V domains shown)
# VH: QVQLVQSGAEVKKPGASVKVSCKASGYTFTGFWIHWVRQAPGQGLEWMGHINPGNGGTNYNEKFKRRVTMTRDTSISTAYMELSRLRSDDTAVYYCARSYSNYVRAMDYWGQGTLVTVSS
# VL: DIQMTQSPSSLSASVGDRVTITCRASQDISNFLNWYQQKPGKAPKLLIYYTSTLHSGVPSRFSGSGSGTDFTLTISSLQPEDFATYYCQQGKTLPPTFGGGTKVEIK
# B2: CDR-Fab framework variant H73 (Fab, V domains shown)
# VH: B1 VH with T74K
# VL: B1 VL
# B3: murine monoclonal antibody 4E12 (antibody, V domains shown)
# VH: QVQPQQPGAELVKPGASVKMSCKASGDTFTNSWIGWVTQRPGQGLEWIGDIFPGSGHTNYNEKFKNRATLTVDTSSSTAYMLLSSLTSDDSAVYYCVIENYAWFAYWGQGTLVTVSA
# VL: DIVMTQSQKFMSSSVGDRVSVTCKASQNVNTNVAWYQQKQGQSPRPLIYSASSRCSGVPDRFTGSGFGTDFTLTISNVQSEDLAEYFCQQYHSFPLTFGAGAKLDLK
# notes: Whole murine mAb from hybridoma; also called mAb 4E12
# B4: 2H10 murine Fab (Fab, V domains shown)
# VH: QVQLQQPGTELVKPGASVKLSCKASGYTFTGFWIHWVKQRPGQGLEWIGHINPGNGGTNYNEKFKRMATLTVDKSSSTAYMQLSSLTSEDSAVYYCARSYSNYVRAMDYWGQGTSVTVSS
# VL: EIQMTQTTSSLSASLGDRVTISCRASQDISNFLNWYQQKPDGTVKLLIYYTSTLHSGVPSRFSGSGSGTDYSLTISNLEQEDIATYFCQQGKTLPPTFGGGTKLEIK
# B5: mouse-human chimeric Fab (2H10) (Fab, V domains shown)
# VH: B4 VH
# VL: B4 VL
# B6: murine monoclonal antibody 2H10 (antibody, V domains shown)
# VH: B4 VH
# VL: B4 VL
# notes: Whole murine mAb from hybridoma; also called mAb 2H10
# B7: murine monoclonal antibody 1C6 (antibody, V domains shown)
# VH: QVQLQQSGPELVKPGASVRISCKASGYTFTTFYIHWVKQRPGQGLEWIAWFYPGNVNTNYNEKFKDKATLTADKSSSAAYLQLNSLTSEDSAVYFCTRSPYYGYVFDFWGQGTTLTVSS
# VL: DIVMTQSHKFMSTSVGDRVSITCKASQDVGSAVAWYQQKPGQSPKLLIYWASTRHTGVPDRFTGSGSGTDFTFTISNVQSEDLADYFCQQYSSSLTFGAGATKLEL
# notes: Whole murine mAb from hybridoma; also called mAb 1C6
# Columns and labels:
# [1] = target: human VEGF-B (Example 10, form not stated) (human) (UniProt P49765); test: BIAcore dissociation rate, ratio
# [2] = target: human VEGF-B (Example 10, form not stated) (human) (UniProt P49765); test: competition ELISA, plate bound human VEGF-B, soluble VEGF-B titrated
# [3] = target: human VEGF-B (Example 10, form not stated) (human) (UniProt P49765); test: SPR (BIAcore), immobilised human VEGF-B, Fab injected at several concentrations
# [4] = target: human VEGF-B (Example 10, form not stated) (human) (UniProt P49765); test: SPR (BIAcore), immobilised human VEGF-B
# [5] = target: T1, 6×His.mVEGF-B10-108; test: ELISA on plate-bound antigen, HRP secondary, TMB
# Method: (§1) Monoclonal antibodies raised against hVEGF-B were tested for cross-reactivity with mVEGF-B using a standard ELISA format. mAbs were incubated with plate bound hVEGF-B₁₀₋₁₀₈ or 6×His.mVEGF-B₁₀₋₁₀₈ at a concentration of 1.25 μg/ml and bound mAb visualized using a HRP-conjugated secondary reagent and TMB substrate.
# [6] = target: T2, human VEGF-B10-108; test: SPR (BIAcore 2000), VEGF-B10-108 amine-coupled on chip, mAb injected 125-0.98 nM
# Method: A Biosensor-based approach was used for kinetic analysis of mAb binding to target VEGF-B using a BIAcore™ 2000 surface plasmon resonance instrument (Biacore AB, Uppsala, Sweden). A biosensor chip was activated for covalent coupling of VEGF-B using N-ethyl-N′-(3-dimethylaminopropyl)-carbodiimide hydrochloride (EDC) and N-hydroxysuccinimide (NHS) according to the supplier's (Biacore AB, Uppsala, Sweden) instructions. A solution of 5 μg/ml VEGF-B₁₀₋₁₀₈ in 20 mM sodium acetate, pH 4.8 was prepared and an aliquot (35 μl) was injected at a flow rate of 2 μl/min to achieve approximately 500-600 response units (RU) of coupled protein. Finally, 1 M ethanolamine was injected as a blocking agent.
# For kinetics measurements, two-fold serial dilutions of test antibody starting at 125n M to 0.98 nM were injected in BIAcore™ buffer (20 mM HEPES, pH 7.8, 0.15 M NaCl, 3.4 mM EDTA, 0.005% Tween-20) with 1 mg/ml bovine serum albumin (BSA) at 25° C. at a flow rate of 15 μl/min. Simultaneous analysis of association (kₐ) and dissociation (kd) rate constants using BIAevaluation™ V3.02 software (Biacore AB, Uppsala, Sweden) was used to determine the equilibrium binding constant (KD).
# [7] = target: T1, 6×His.mVEGF-B10-108; test: ELISA on plate-bound 6×His.mVEGF-B10-108
# Method: as §1
Binder,Relative koff (koff CDR-Fab variant/koff murine-human chimera) [1],Relative VEGF-B binding affinity (IC50 CDR-Fab variant/IC50 murine-human chimera) [2],Kd [6],koff [6],kon [6],other results
B1,3.7,2.25,–,–,–,Kd [3]: 0.66 nM
B2,1.4,1.42,–,–,–,Kd [4]: 0.337 nM; fold of KD against the 2H10 murine Fab [4]: < 3 fold
B3,–,–,2.71 nM,0.000132 s⁻¹,48700 M⁻¹ s⁻¹,binding result [5]: no binding (tested: 1.25 µg/ml)
B4,–,–,–,–,–,Kd [3]: 0.115 nM
B5,1,1,–,–,–,–
B6,–,–,0.18 nM,6.77e-05 s⁻¹,385000 M⁻¹ s⁻¹,binding result [7]: binds
B7,–,–,2.82 nM,0.000153 s⁻¹,54500 M⁻¹ s⁻¹,binding result [7]: binds
